Test results as given in US20170306005A1 (NASCIENT, published 2017).
Substitutions are numbered along the chain they refer to.

Tests used:
[1] = target: T1, human Fc-His-FBG (human, UniProt P24821 1974-2201); test: plate assay: inhibition of binding of 100 nM Fc-His-TNC-FBG to coated TLR4, against isotype control
T1 construct: C-terminal FBG fusion to human IgG1 Fc; also called Fc-His-huFBG; huFc-His-FBG; not shown: human IgG1 Fc tag; 6His tag
T1 sequence: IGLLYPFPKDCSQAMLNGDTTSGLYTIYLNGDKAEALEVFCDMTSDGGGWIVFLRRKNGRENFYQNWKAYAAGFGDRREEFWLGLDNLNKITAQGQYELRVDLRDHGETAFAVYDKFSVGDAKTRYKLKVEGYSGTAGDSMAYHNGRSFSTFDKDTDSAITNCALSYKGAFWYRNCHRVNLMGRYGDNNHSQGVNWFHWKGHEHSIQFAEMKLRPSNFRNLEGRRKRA
Protocol: FIG. 16B. […] Detection was carried out by successive incubation of antibody directed against the Fc portion of the protein, an anti-mouse HRP conjugated secondary antibody and TMB substrate.
Detection was carried out by successive incubation of antibody directed against the Fc portion of the protein, an anti-mouse HRP conjugated secondary antibody and TMB substrate.

[2] = target: T2, human tenascin-C rCd4-His-FBG (rat; human, UniProt P05540 207-392, limits assumed); test: SPR, captured purified IgG4, 37 C
T2 construct: domain: domains 3 and 4; C-terminal FBG fusion; biotinylated in the ELISA and HTRF screens; also called Hu TNC; human TNC rCd4-His-FBG; not shown: 6His tag
T2 sequence (chain (part 1 of 2)): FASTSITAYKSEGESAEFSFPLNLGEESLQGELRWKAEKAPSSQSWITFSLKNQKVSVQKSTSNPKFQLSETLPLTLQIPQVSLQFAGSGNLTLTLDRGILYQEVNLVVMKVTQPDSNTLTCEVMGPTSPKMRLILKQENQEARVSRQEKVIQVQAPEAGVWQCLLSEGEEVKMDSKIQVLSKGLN
T2 sequence (chain (part 2 of 2)): T1 sequence

[3] = target: T3, rat tenascin-C rCd4-His-FBG (rat, UniProt P05540 207-392, limits assumed); test: SPR, captured purified IgG4, 37 C
T3 construct: domain: domains 3 and 4; C-terminal FBG fusion; also called Rat TNC; rat TNC rCD4-His-FBG; not shown: 6His tag
T3 sequence (chain (part 1 of 2)): T2 sequence (chain (part 1 of 2))
T3 sequence (chain (part 2 of 2)): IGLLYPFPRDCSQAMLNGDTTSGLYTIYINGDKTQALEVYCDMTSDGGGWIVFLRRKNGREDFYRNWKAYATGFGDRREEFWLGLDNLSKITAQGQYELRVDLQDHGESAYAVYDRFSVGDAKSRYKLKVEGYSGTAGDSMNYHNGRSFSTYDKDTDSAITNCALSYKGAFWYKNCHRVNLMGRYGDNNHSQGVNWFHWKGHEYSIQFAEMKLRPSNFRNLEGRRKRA

[4] = target: T4, mouse tenascin-C rCd4-His-FBG (rat; mouse, UniProt P05540 207-392, limits assumed); test: SPR, captured purified IgG4, 37 C
T4 construct: domain: domains 3 and 4; C-terminal FBG fusion; biotinylated in the ELISA screen; also called Mu TNC; mouse TNC rCd4-His-FBG; not shown: 6His tag
T4 sequence (chain (part 1 of 2)): T2 sequence (chain (part 1 of 2))
T4 sequence (chain (part 2 of 2)): T3 sequence (chain (part 2 of 2)) with T72A

[5] = target: T5, dog tenascin-C rCD4-His-FBG (rat; dog, UniProt P05540 207-392, limits assumed); test: SPR, captured purified IgG4, 37 C
T5 construct: domain: domains 3 and 4; C-terminal FBG fusion; also called Dog TNC; not shown: 6His tag
T5 sequence (chain (part 1 of 2)): T2 sequence (chain (part 1 of 2))
T5 sequence (chain (part 2 of 2)): T3 sequence (chain (part 2 of 2)) with I29L, T34A, T72A, S89H, Q104R, E108K, S109T, S124T, N142A, Y152F

[6] = target: T6, human tenascin-R rCd4-His-FBG (rat; human, UniProt P05540 207-392, limits assumed); test: SPR, captured purified IgG4, 37 C; purified IgG4, full kinetics, SPR at 37 C
T6 construct: domain: domains 3 and 4; C-terminal FBG fusion; also called Hu TNR; human TNR rCd4-His-FBG; not shown: 6His tag
T6 sequence (chain (part 1 of 2)): T2 sequence (chain (part 1 of 2))
T6 sequence (chain (part 2 of 2)): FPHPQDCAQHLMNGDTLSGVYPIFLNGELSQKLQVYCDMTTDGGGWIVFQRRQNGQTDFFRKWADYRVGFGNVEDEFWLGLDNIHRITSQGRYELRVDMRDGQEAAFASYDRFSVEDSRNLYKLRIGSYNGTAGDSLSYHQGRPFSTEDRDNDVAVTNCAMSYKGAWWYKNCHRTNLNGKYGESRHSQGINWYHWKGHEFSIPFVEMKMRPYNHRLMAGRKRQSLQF
Protocol: Detailed kinetic parameters were evaluated for the 9 prioritised IgG4 antibodies. Binding characteristics were determined for interaction with human, rat and dog TNC rCD4-His-FBG, and human TNR rCD4-His-FBG. Kinetic assays followed essentially the same protocols as for the off-rate determinations described above, with some modifications as follows. […] Purified anti-FBG IgG4 was diluted to a concentration of 3.5 nM in PBS, pH 7.4, 0.05% Tween-20 and injected into FC2 at a flow rate of 10 μl/min, 60 s contact time. […] Antigens were prepared by doubling dilution in PBS, pH 7.4, 0.05% Tween-20 (highest concentration 100 nM except mouse rCD4-His-FBG which was 7 nM). Assays were performed at 37° C. (30 μl/min, 120 s contact time; mouse rCD4-His-FBGFBG 10 μl/min, 60 s contact time), with both the flow cell and injection chamber equilibrated to this temperature. As before, kinetic parameters were determined by reference cell subtraction and fitting the sensogram experimental data assuming a 1:1 interaction using BIAevaluation software (GE, BR-1005-97).

- IC50 [1]: 44.5 nM
- Kd [2]: 0.072 nM
- koff [2]: 0.00083 s⁻¹
- kon [2]: 1.16e+07 M⁻¹ s⁻¹
- Kd [3]: 1.22 nM
- koff [3]: 0.00473 s⁻¹
- kon [3]: 3.89e+06 M⁻¹ s⁻¹
- Kd [4]: 0.46 nM
- koff [4]: 0.000445 s⁻¹
- kon [4]: 972000 M⁻¹ s⁻¹
- Kd [5]: 1.8 nM
- koff [5]: 0.0108 s⁻¹
- kon [5]: 5.97e+06 M⁻¹ s⁻¹
- Kd [6]: 35.8 nM
- koff [6]: 0.0431 s⁻¹
- kon [6]: 1.2e+06 M⁻¹ s⁻¹
B1: 165_13_C3 human IgG4 (antibody, V domains shown)
VH: QVQLVESGGGLVQPGRSLRLSCAASGFTFDDYAMHWVRQAPGKGLEWVSGISGSGGSTYYADSVKGRFTISRDNAKNSLYLQMNSLRAEDTALYYCAKSYQSDEDAFDIWGQGTMVTVSS
VL: DIQMTQSPASLPTPVGDRVTITCRASQYIQGFLNWYQQKPGKAPKLLIYDASNLETGVPSRFSGSGSGTDFTLTISSLQPEDFATYYCQQSYSTPQTFGQGTKVDIKR
notes: also called IgG4 C3; C3 IgG4 MAb
